The record followed here is the DeepSol protein solubility set.

The nature of this series: soluble on expression in E. coli; label from the status in PepcDB or PDB records.
Regarding “MAASWRLGCDPRLLRYLVGFPGRRSVGLVKGALGWSVSRGANWRWFHSTQWLRGDPIKILMPSLSPTMEEGNIVKWLKKEGEAVSAGDALCEIETDKAVVTLDASDDGILAKIVVEEGSKNIRLGSLIGLIVEEGEDWKHVEIPKDVGPPPPVSKPSEPRPSPEPQISIPVKKEHIPGTLRFRLSPAARNILEKHSLDASQGTATGPRGIFTKEDALKLVQLKQTGKITESRPTPAPTATPTAPSPLQATAGPSYPRPVIPPVSTPGQPNAVGTFTEIPASNIRRVIAKRLTESKSTVPHAYATADCDLGAVLKVRQDLVKDDIKVSVNDFIIKAAAVTLKQMPDVNVSWDGEGPKQLPFIDISVAVATDKGLLTPIIKDAAAKGIQEIADSVKALSKKARDGKLLPEEYQGGSFSISNLGMFGIDEFTAVINPPQACILAVGRFRPVLKLTEDEEGNAKLQQRQLITVTMSSDSRVVDDELATRFLKSFKANLENPIRLA”, the “soluble on expression in E. coli” value is reported as “soluble”.
For “MSLGAKKEGFQTMVITDNKRENFYKNFSFIDNIYAYASLDEAVSIINGIKDYGILIPHGSLVEYLGKERVDKIETKIFGNKKIFEWEADQKKKMELLRKSNIKIPEIFERPEDVDRLVIVKLNGAKGGKGYFLARNKSEVKEGIQKLIESKMIRDENEVIIQEYVVGVPMYFQFFYSDIINRTEIFGIDIRYETNIDGLRRLPFEYMKELKINPTFVVVGNIPAVARESLLPVALEYANNFVRTTKELVPPGMIGPFCLESIITDNSDIVVFEFSGRIVAGTNLYVNGSPYSWLYWDEPMSIGRRIAREIRVANEKDKLSLVVSEGHHHHHH” the value was “not soluble”; for “MNDNAFTFQTLHPETIMDALFEQGIMVDSGLTPLNSYENRVYQFQDEDRRRFVVKFYRPERWSVDQIREEHQFALELVKDEVPVAAPLAFNGQTLLAHQGYHYAIFPSVGGRQFEADNIDQMEAVGRYLGRLHQTGRKRPFTFRPDIGLAEYLFEPRQVFEDAALIPSGQKAAFLKATDTLLSAVTECWRTDFATLRLHGDCHAGNILWRDGPLFVDLDDARNGPAIQDLWMLLNGDKAEQRMQLETIIEAYEEVSEFDTAEIGLIEPLRAMRLVYYLAWLIRRWGDPAFPKNFPWLTGEDYWQRQTTTFIEQTKILHEPPLQLTPMYLEHHHHHH”, “not soluble”.
With “MGSDKIHHHHHHMTARWRSANGRPAPTRVEVVSDSLTADDANRMASQGIAMLWQGDFHNARQILNAMDRRIGAGKKETAATPAEKFYRHRQSASHRARILGLLLIPLDPGPVVPLRRAPDIRQAAAGAYGDIGEPSVVSLHELVGAIGAHEWRRNGVYVDALEGRIHPHYGTFFPTRSEYVDLVAAAALPSDTLAFDVGTGTGVLAAVLARRGVRSVVATDNEPRAIACAAENFRNLGVQDRAEAVLTDMFPPGRAPLIVCNPPWIPATPHSSLDSAVYDPGSRMLFRFLNELSDHLEPGGEGWLVLSDLAEHLGLRSRGDLLAAIEAAGLKVVERLDTKPTHPKASDRDDPLFEARTAEVTSLWRLVPR”, the “soluble on expression in E. coli” value is reported as “not soluble”.
On to “MSLQRKRIVRERVVYVLDYMREGNPLDKHKFHRDKPLIQAVGEDYFLLLELTPLSYNLDFLPEDKIELDSNSSVKVDAHISYEDLTSVSRDNLPKILYKIVFEKEKVFVEIFNKAEPLTLRLHALELLPNIGKKTLRIILEERKKKPFESFKDIESRIGVKDVASILVERIIKEMQGGEKYYLFVYPLIPDENKRLEQQFIYVGYIEKLKEGHHHHHH”, for which the “soluble on expression in E. coli” value is “soluble”.
On to “MLNVGDSVQIAGCSTKKRLLETSSGCDSFDTLIGGALVNSSIVLIDEYRSRCYGSYLIRSFLAEGLHHGHRCFIADPTEDPKEINLIPSRRTSTDMQNQEIPNSLPAENENSMKIAWRYGNVKQVSSSLGPLSNENQYDFTKHVENPNVDVYAEKVFTLKGIYETLCQIVKENEAHTKSGGRGGPKKNLLRVVLKNIDMEICEDYKFLGRFLCCLRSLARSSYMIVYITANSFRVPKPTWRILESAADTHIQLMPFDENEKKMFKHLGTAHGYFHLKSLPRLMSVGTHTPPILDLIFEASSRKGFQIRVMHLPPAFDEPAPGHQNTPSCQNIDF”, for which the “soluble on expression in E. coli” value was “soluble”.
“MAENAAPGLISELKLAVPWGHIAAKAWGSLQGPPVLCLHGWLDNASSFDRLIPLLPQDFYYVAMDFGGHGLSSHYSPGVPYYLQTFVSEIRRVVAALKWNRFSILGHSFGGVVGGMFFCTFPEMVDKLILLDTPLFLLESDEMENLLTYKRRAIEHVLQVEASQEPSHVFSLKQLLQRQRTALTSSAGSCVRIPSGSCRPMSC”: the “soluble on expression in E. coli” value is recorded as “soluble”.
